These results are taken from publication doi:10.1101/2025.06.24.661325.

In this experiment the target is M. tuberculosis MmpL5 Δ494-688 with C-terminal GFP-FLAG tag (M. tuberculosis) (UniProt P9WJV1). The experiment is described as follows: cryo-EM structure.

In turn, “M. tuberculosis MmpL5 Δ494-688 with C-terminal GFP-FLAG tag (from UniProt P9WJV1 1-964) (natural protein)” gave a stoichiometry N of 3.
